Data reported in the supplement of paper PMC9732359.
± gives the uncertainty stated by the source.

assay: protein stability index of a GFP-peptide fusion (yeast GPS) (PSI 1-4); higher = more stable; sorted into four equal gates, so the index is relative within each strain; settings: pdr5∆
Procedure, shortened: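 Sequencing reads from sorted gates were used to score each peptide. The library consisted of tiled 17-residue yeast protein peptides fused downstream of GFP on a Cherry-expressing plasmid, pooled and carried in yeast. Mid-log cultures in leucine-free medium were split into four equal gates by GFP/Cherry ratio, and each gate's plasmids were PCR-amplified and Illumina-sequenced. The protein stability index adds up, over all gates, the read frequency multiplied by the gate number.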

Which protein stability index does the source give for YYYNTKIYKLENGERKL [YMR129W/POM152] here?
Its protein stability index is 3.26 ± 0.069.

same assay, conditions: san1∆

Which protein stability index does the source give for YGEYPPTKLLVSEVAKI [PRE8] here?
Its protein stability index is 2.67 ± 0.12.

Which protein stability index does the source give for YGFEDESAPITAEDSWA [RPB2] here?
Its protein stability index is 3.35 ± 0.042.

For YGFKQEIFDVTSNGLKK [FAS1], which protein stability index is on record?
Its protein stability index is 2.61 ± 0.085.

Which protein stability index does the source give for YGKVYKAKRQINSGTNS [SSN3] here?
The protein stability index was 2.49 ± 0.094.

Which protein stability index does the source give for YGQRAVLKFAAHTGATP [RPS0B] here?
The protein stability index was 2.66 ± 0.046.

Which protein stability index does the source give for YGTENKDGEDIIFNYVP [CSL4] here?
The protein stability index was 2.92 ± 0.085.

Which protein stability index does the source give for YGYPSYSTIRQLVYKRG [RPL7A] here?
Its protein stability index is 1.25 ± 0.12.

Which protein stability index does the source give for YGYWFDCRMGNFYIQYD [AAR2] here?
The protein stability index was 1.93 ± 0.081.

Which protein stability index does the source give for YHFPIFNKYADPTLTTT [RPN4] here?
Its protein stability index is 2.24 ± 0.048.

For YHGLYTNYEMSYWQKSY [LIN1], which protein stability index is on record?
Its protein stability index is 2.11 ± 0.055.

For YIDIRTNNVLRKLGLLG [MTW1], which protein stability index is on record?
The protein stability index was 1.64 ± 0.15.

For YIDYSSKRYIPSVNDFV [RRP40], which protein stability index is on record?
The protein stability index was 2.42 ± 0.1.

Which protein stability index does the source give for YIEDGRNPDIYTREFVE [NUT2] here?
The protein stability index was 3.13 ± 0.044.

Which protein stability index does the source give for YIFCISRTIGMVVNGPI [SCL1] here?
Its protein stability index is 1.58 ± 0.082.

Which protein stability index does the source give for YIIQGSNTNDNISIITL [RGR1] here?
The protein stability index was 2.19 ± 0.15.

For YIKNILEAPVKSIENPT [YLR335W/NUP2], which protein stability index is on record?
Its protein stability index is 2.19 ± 0.084.

With YISFIKDDRFVPVRKFK [RPN2] as the sequence, how does the protein stability index read?
The protein stability index was 2.96 ± 0.041.

Which protein stability index does the source give for YISKIGEKIDSNKPIFL [SWI1] here?
Its protein stability index is 3.01 ± 0.07.

For YITLKATFLKDDLPYYV [QCR2], which protein stability index is on record?
Its protein stability index is 2.51 ± 0.054.

Which protein stability index does the source give for YKAQADTFYMNVESVGS [RPB3] here?
Its protein stability index is 2.98 ± 0.068.

With YKCTAAMEKYLLSKSKI [MTW1] as the sequence, how does the protein stability index read?
Its protein stability index is 2.44 ± 0.049.

Which protein stability index does the source give for YKEIRDVSRVAAVETLY [RPL20A] here?
Its protein stability index is 1.75 ± 0.17.

For YKKSTENESTNYQYKIQ [MED7], which protein stability index is on record?
Its protein stability index is 2.41 ± 0.055.

Which protein stability index does the source give for YKNHELLKLERKKTEAV [SNF2] here?
The protein stability index was 3.08 ± 0.05.

Which protein stability index does the source give for YLADDIDADSLEDIYTS [RPL5] here?
Its protein stability index is 2 ± 0.08.

Which protein stability index does the source give for YLEELQRKKQSDVLRFL [RPL15A] here?
Its protein stability index is 1.72 ± 0.26.

For YLHQNWVLHRDLKPANI [SSN3], which protein stability index is on record?
Its protein stability index is 2.72 ± 0.23.

Which protein stability index does the source give for YLINGKRFKRKDNAKIS [SRP68] here?
Its protein stability index is 1.75 ± 0.12.

For YLKDNITLLTRQRELLI [GRR1], which protein stability index is on record?
Its protein stability index is 1.84 ± 0.076.

With YLLTQQQIWKSPNFKNY [SOH1] as the sequence, how does the protein stability index read?
Its protein stability index is 1.18 ± 0.081.

Which protein stability index does the source give for YLQETAISGKKTTYYYY [RPC82] here?
Its protein stability index is 2.84 ± 0.057.

Which protein stability index does the source give for YMDCLLYDLRASYAKIE [SNU114] here?
Its protein stability index is 1.81 ± 0.095.

For YMQRTVEEAHDFNMKLA [RPB2], which protein stability index is on record?
The protein stability index was 3.02 ± 0.075.

With YMRKQVGVGKLNKLYGG [RPS19A] as the sequence, how does the protein stability index read?
Its protein stability index is 2.89 ± 0.14.

With YNILGNLGIPKIAYRGV [SSN2] as the sequence, how does the protein stability index read?
Its protein stability index is 1.55 ± 0.25.

Which protein stability index does the source give for YNMYDAYGNWFNGLKPL [PRP8] here?
The protein stability index was 2.9 ± 0.11.

For YNTRKNAVTAAAANNNI [GAL11], which protein stability index is on record?
Its protein stability index is 2.67 ± 0.05.

Which protein stability index does the source give for YPLLIRMSYGSHDKKTK [SRP14] here?
Its protein stability index is 2.57 ± 0.043.

Which protein stability index does the source give for YPLWVMAKQLIRLANES [CSN12] here?
Its protein stability index is 1.34 ± 0.17.

Which protein stability index does the source give for YPSKTLKTDGVRAVSIT [FAS2] here?
Its protein stability index is 2 ± 0.091.

Which protein stability index does the source give for YPVRIPRLDTSKEFSAY [YJR042W/NUP85] here?
The protein stability index was 2.51 ± 0.075.

Which protein stability index does the source give for YQELFIQPKNSDDQQEA [YML103C/NUP188] here?
Its protein stability index is 2.71 ± 0.053.

Which protein stability index does the source give for YQKKQYKDSLALINDLL [RPN6] here?
Its protein stability index is 1.82 ± 0.21.

With YQLNDRNVTKGDIVRML [SMC3] as the sequence, how does the protein stability index read?
The protein stability index was 2.84 ± 0.14.

For YQSRGIDAMKAVAEAYN [RPN6], which protein stability index is on record?
Its protein stability index is 2.81 ± 0.077.

For YQTRARQKARTDAHTPL [RPR2], which protein stability index is on record?
Its protein stability index is 3.32 ± 0.058.

For YQVDEDVKSSLSKVFSD [YJL039C/NUP192], which protein stability index is on record?
Its protein stability index is 3.33 ± 0.17.

For YQVEYAFKATNQTNINS [SCL1], which protein stability index is on record?
Its protein stability index is 2.99 ± 0.081.

For YQWRDLIARRDDESPRF [RRP6], which protein stability index is on record?
The protein stability index was 3.24 ± 0.057.

For YRKTEGIFEKAKAKAVT [YMR153W/NUP53], which protein stability index is on record?
The protein stability index was 2.65 ± 0.13.

For YRPLTPSSEVYSPIEKE [RRP6], which protein stability index is on record?
Its protein stability index is 2.69 ± 0.073.

With YRSHIFATNEERQMNFL [SWI3] as the sequence, how does the protein stability index read?
Its protein stability index is 2.59 ± 0.081.

With YSEHLKPYDINVVLVTN [DIS3] as the sequence, how does the protein stability index read?
The protein stability index was 2.86 ± 0.066.

Which protein stability index does the source give for YSIALSNVAAIFKGIGG [GAL11] here?
The protein stability index was 1.38 ± 0.18.

For YSNEPFNTNFDDEFGDL [SNF6], which protein stability index is on record?
The protein stability index was 2.99 ± 0.059.

Which protein stability index does the source give for YSPIEKESPWKILMYQY [RRP6] here?
Its protein stability index is 1.35 ± 0.11.

For YSPSNEISISFDVNNID [YDL116W/NUP84], which protein stability index is on record?
Its protein stability index is 2.31 ± 0.12.

Which protein stability index does the source give for YSPTSPSYSPTSPGYSP [RPO21] here?
The protein stability index was 2.95 ± 0.039.

With YSPTSPSYSPTSPSYSP [RPO21] as the sequence, how does the protein stability index read?
Its protein stability index is 2.87 ± 0.024.

With YSQSPPRSPGRSPTRRL [SMC4] as the sequence, how does the protein stability index read?
Its protein stability index is 2.98 ± 0.089.

Which protein stability index does the source give for YSTCPSETDLNDIPLGS [SRB8] here?
Its protein stability index is 2.36 ± 0.14.

Which protein stability index does the source give for YSVLLESPLSVAIQQGD [YML103C/NUP188] here?
The protein stability index was 1.2 ± 0.17.

For YTEFIDSFIEKIIPKDI [ITC1], which protein stability index is on record?
Its protein stability index is 1.76 ± 0.12.

Which protein stability index does the source give for YTEQFQHYKNNSISSQP [SSN2] here?
Its protein stability index is 3.09 ± 0.15.

With YTFKTSMRVKPSASLKL [YMR129W/POM152] as the sequence, how does the protein stability index read?
Its protein stability index is 2.31 ± 0.14.

For YVDFVPMYKELWINYIK [POP4], which protein stability index is on record?
Its protein stability index is 2.62 ± 0.068.

With YVQVRQPIFVAHTAGRY [RPS5] as the sequence, how does the protein stability index read?
The protein stability index was 1.89 ± 0.11.

With YYNEISRDLDISSSTQC [POP6] as the sequence, how does the protein stability index read?
Its protein stability index is 2.25 ± 0.093.

With YYYNTKIYKLENGERKL [YMR129W/POM152] as the sequence, how does the protein stability index read?
Its protein stability index is 3.1 ± 0.069.
